From patent publication US20230382979A1 (ADAPTIVE BIOTECHNOLOGIES, published 2023) come the findings set out here.

To fix the notation:
B1: antibody 2706 (antibody, V domains shown)
VH: QVQLVQSGAEVKKPGSSVKVSCKASGGTFSTYAISWVRQAPGQGLEWMGGIIPLFATANYAQNFQGRVTITADKSTSTAYMELSSLRSEDTAVYYCASVRLHLEELSLSHQGDYYYGLDVWGQGTTVTVSS
VL: DIQMTQSPSSLSASVADRVTITCQASQDISHYLNWYQQKPGKAPQLLIYDASKLETGAPSRFSGSGSGTDFTFTISSLQPEDIATYYCQQYDHLPLTFGGGSKVEIK
B2: antibody 2075 (antibody, V domains shown)
VH: QVQLVQSGAEVKKPGSSVKVSCTASGGTFSIYAFSWVRQAPGQGLEWMGGIIPISGTAGYAQKFQGRVTITADESTSTAYMELSSLRSEDTAIYYCARKYRYCSGSRCYTYFDYWGQGTLVTVSS
VL: DIQMTQSPSSLSASVGDRVTITCRASQSISSFLNWYQQKPGKAPKLLIYAASSLQSGVPSRFSGSGSGTDFTLTISSLQPEDSATYYCQQSYSTITFGQGTRLEIK
B3: antibody 1815 (antibody, V domains shown)
VH: QVQLQESGPGLVKPSETLSLTCSVSGGSINYYYWSWIRKSPGKGLEWIGFIYSSGTTNYNPSLKSRVSMSIGTSKRQFSLKLSSVTAADSAVYYCARHSRSCTNGVCQTYYYYALDVWGHGTTVTVSS
VL: QSVLTQPPSVSGAPGQRVTISCTGSSSNIGAGYDVHWYQQLPGTAPKLLIYANTHRPSGVPDRFSASKSGTSASLAIAGLQAEDEGDYYCQSYDGSLSESAVFGGGTRLTVL
B4: antibody 1823 (antibody, V domains shown)
VH: EVQLVESGGGLVKPGGSLRLSCVASGFSFGLYTMNWVRQAPGKGLEWVSYISSSTSYKYYADSVKGRVSVSRDNAKNSLYLQLNGLRVEDTAVYYCARDGYCPNGICTYYGMDVWGQGTTVTVSA
VL: EIVMTQSPATLSVSPGERATLSCRASQSVSSNLAWYQQKPGQAPRLLIYGASTRATGIPARFSGSGSGTEFTLTITGLQSEDFAVYYCQQYDKWPPAYSFGQGTKVEIK
B5: antibody 1915 (antibody, V domains shown)
VH: QVQLVESGGGVVQPGRSLRLSCAASGFTFSSYAMHWVRQAPGKGLEWVAVISYDGSNKYYADSVKGRFTISRDNSKNTLYLQMDSLRAQDTAVYYCATPRDMFSSGWSSPFDYWGQGTLVTVSS
VL: DIQMTQSPSSLSASVGDRVTITCQASQDISIYLTWYQQKPGKAPKLLIYGASNLEVEVPSRFSGSGSGTEFTLTISSLQPEDFATYFCQHSDDLPVTFGGGTKVEVK
B6: antibody 1864 (antibody, V domains shown)
VH: B3 VH with S23T, K39Q, S40P, S68T, I71V, G72D, T73S, R76S
VL: B3 VL with A52G, T54S, H55N, A82P, A101G
B7: antibody 1851 (antibody, V domains shown)
VH: B3 VH with S23T, K39Q, S68T, I71V, G72D, T73S, R76S
VL: B3 VL with A52G, T54S, H55N, A82P, A101G
B8: antibody 1870 (antibody, V domains shown)
VH: B3 VH with K39Q, S40P, S68T, I71V, G72D, R76N
VL: B3 VL with A52G, T54S, H55N, A101G
B9: antibody 1963 (antibody, V domains shown)
VH: QVQLVQSGAEVKKPGASVKVSCKASGYTFTSNYIHWLRQAPGQGLEWMGIIKPSGTSTISAQKFRGRVAMTRDTSTSTVYMELSSLRFEDTAIYYCARDAKRALETWGQGTMVTVSS
VL: QSVLTQPPSVSAAPGQKVTISCSGSSSNIGNNYVSWYQQLPGTAPKLLIYDNNKRPSGIPDRFSGSRSGTSATLGITGLQTGDEADYYCGTWDSSLSAWVFGGGTKLTVL
B10: antibody 1959 (antibody, V domains shown)
VH: QVQLVQSGTEVKKPGSSVRVSCQASGDTFTSHAIIWIRQAPGQGLEYLGRIIPVLDITNAAQRFLGRLTLTADKSTTTAYMELSSLRSEDTAVYYCARAPFGLIVMYDHWGQGTLVTVTA
VL: EIVLTQSPGTLSLSPGERATLSCRASQSVSGNFLAWYQQKPGQAPRLLIHETSKRATGIPDRVSGGGSGTDFTLTISRLEPEDFAVYHCQQYGTTAVTFGQGTRLDMK
B11: antibody 1826 (antibody, V domains shown)
VH: QVQLQESGPGLVKPSETLSLTCSVTGGSTNYYYWSWIRQPPGKGLEWIGYIYYSGTTNYNPSLKDRVTMSVDKSKTQLSLKLNSVTAADTAVYYCARHARHCTNGVCQTYYYYGLDVWGLGTTVAVSA
VL: QSVLTQPPSVSAAPGQRVTISCSGSSSNIGAGYDVHWYQHLPGTAPKLLIYNNNNRPSGVPDRFSASRSGTSASLAITGVQTEDEADYYCQSFDGRLSESGVFGGGTKLTVL
B12: antibody 1867 (antibody, V domains shown)
VH: B4 VH with V23A, G30S, L31T, T55S, K58R, K65R, V68F, L83M, I106V, A125S
VL: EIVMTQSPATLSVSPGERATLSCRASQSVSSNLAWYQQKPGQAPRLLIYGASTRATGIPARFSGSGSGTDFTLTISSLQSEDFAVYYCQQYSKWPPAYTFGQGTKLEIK
B13: antibody 1888 (antibody, V domains shown)
VH: B4 VH with V23A, S28T, G30S, L31S, T33S, T55S, V68F, N104K, I106V
VL: EIVMTQSPATLSVSPGERATLSCRASQSVRSRLAWFQQKPGQPPRLLIYDASIRATGIPDRFSGSGSGTEFTLIISGLQSEDFAVYYCQQYDNWPPAYTFGQGTKLEIK
B14: antibody 1969 (antibody, V domains shown)
VH: QVQLVQSGAEVKKPGASVKVSCKASGYSFTDYYIHWVRQAPGQGLEWMGIIKPSAGATVYAQKFRGRVSMTSDTSTGTVYMELSGLKSEDTAVYYCARDYNRSFDFWGQGTLVTVSS
VL: QSVLTQPPSVSAAPGQTVTISCAGSTSNIGKNYVSWYQHLPGTAPKLLIYDNIKRPSGIPDRFSGSTSGTSATLGITELQTGDEADYYCGTWDSSLSAYVFGTGTKVTVL
B15: antibody 1856 (antibody, V domains shown)
VH: EVRLVESGGGLVKPGGSLRLSCAASGFSFSLYTMNWVRQAPGKGLEWVSYISSSSSYRYYADSVKGRFSVSRDNAKNTLYLEMNGLRAEDTAVYYCARDGYCPRGVCTYYGMDVWGQGTTVTVSA
VL: EIVMTQSPATLSVSPGERATLSCRASQTIGIRLAWYQQKPGQAPRLLIYDATIRATGIPARFSGSGSGTDFTLTISGLQSEDFAVYYCQRYNNWPPVYTFGQGTKLEMK

Changes are numbered by the printed parent chain. A value given as a limit tells only on which side of the number the result lay.

The target in one experiment is T1, Receptor-binding domain (RBD) of the SARS-CoV-2 spike protein, WA01/2020 strain (SARS-CoV-2, WA01/2020 strain, UniProt P0DTC2 319-541). The experiment is described as follows: dose-response ELISA on coated antigen. In general terms: An ELISA detects its analyte on a solid surface through an enzyme-linked reagent.
Consider B1, for which the EC50 (commonly the concentration needed to bring the measured effect to its halfway point) was found to be 0.017 nM.
The molecule B2 gave an EC50 of 0.073 nM.

A further experiment concerns the target T1, Receptor-binding domain (RBD) of the …. Kind of experiment: SPR (Biacore 8K), antigen immobilized, antibody injected. (In SPR one partner is held on a chip, and binding of the other changes the refractive index at the surface.)
With B1, the Kd (in general, the free concentration of one partner at which half of the binding sites on the other are occupied at equilibrium, for simple one-to-one binding) worked out at 0.029 nM.
Consider B2, for which the Kd is under 0.0007 nM.

The next experiment addresses SARS-CoV-2 spike protein on live virus, strain USA-WA1/2020 (SARS-CoV-2, WA01/2020 strain, UniProt P0DTC2 14-1273). Kind of experiment: cell-based or functional assay.
Consider B1, for which the “Live Neut, WA1/2020 IC50 (pM)” value was 171 pM.
With B2, the “Live Neut, WA1/2020 IC50 (pM)” value came out at 12 pM.

Another experiment concerns the target SARS-CoV-2 spike protein, B1.351 (beta variant), borne on lentiviral pseudovirus (SARS-CoV-2, B1.351). The experiment is described as follows: cell-based or functional assay.
For B1, the “Pseudo Neut, B1.351 IC50 (pM)” value was over 18000 pM.
For the molecule B3, the “Pseudo Neut, B1.351 IC50 (pM)” value worked out at 345 pM.
On the same count and under the same terms, then B4, with 133 pM.

Another experiment deals with SARS-CoV-2 spike protein, B1.1.7 (alpha variant), borne on lentiviral pseudovirus (SARS-CoV-2, B1.1.7). Kind of experiment: cell-based or functional assay.
For the molecule B1, the “Pseudo Neut, B1.1.7 IC50 (pM)” value stood at 13 pM.
As for B4, the “Pseudo Neut, B1.1.7 IC50 (pM)” value was determined as 850 pM.
Same read-out and setting: then B2, with about 7 pM.

A further experiment deals with T1, Receptor-binding domain (RBD) of the …. The experiment is described as follows: ELISA, antibody blocks RBD binding to human ACE2.
For the molecule B1, the IC50 – broadly, the concentration needed to halve the response being measured – was 0.51 nM.
Regarding B2, the IC50 amounted to 0.93 nM.

For the next experiment the target is unchanged. Kind of experiment: ELISA screening, antibody concentration not given.
Turning to B5, the binding result is given as “no binding (tested: not printed)”.
Take B3: the binding result is given as “no binding (tested: not printed)”.
In the case of B6, the binding result is “no binding (tested: not printed)”.
In the case of B7, the binding result is listed as “no binding (tested: not printed)”.
On to B8, for which the binding result is “no binding (tested: not printed)”.
Still for that read-out and setting: the result for B9 reads “no binding (tested: not printed)”.
Take B10: the binding result is reported as “no binding (tested: not printed)”.
For B11, the binding result is “no binding (tested: not printed)”.
On the same count and under the same terms, then B12, with “no binding (tested: not printed)”; and B13, with “no binding (tested: not printed)”.
Turning to B14, the binding result is on record as “no binding (tested: not printed)”.
Consider B15, for which the binding result was “no binding (tested: not printed)”.
